We go through 3 molecules from paper PMC12278311, “PNUTS:PP1 recruitment to Tox4 regulates chromosomal dispersal in Drosophila germline development” (Cell reports, 2025).

Holding throughout (details): both partners purified
Assay [1] addresses T1, PNUTS N-terminal domain (TND), rat, residues 5-160, C48S (rat, C48S).
T1 construct: PP1 nuclear targeting subunit (PNUTS, PPP1R10), rat, residues 5-160; Cloned in pRP1b; His6 tag cleaved with TEV protease; also called PNUTS C48S; PNUTS5-160 C48S; source: E. coli BL21 (DE3), purified (HisTrap, TEV cleavage, Ni-NTA flow-through, SEC)
T1 chain: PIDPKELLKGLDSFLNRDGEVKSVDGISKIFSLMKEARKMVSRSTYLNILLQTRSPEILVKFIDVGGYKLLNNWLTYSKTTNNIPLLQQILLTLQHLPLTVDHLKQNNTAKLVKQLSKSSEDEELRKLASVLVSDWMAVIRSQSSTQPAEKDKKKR
The experiment in a line: ITC; Tox4 titrated into PNUTS; Affinity-ITC, 25 °C; 20 mM Tris pH 8.5, 150 mM NaCl, 0.1 mM ZnSO4, 0.5 mM TCEP; one-site model assuming 1:1 stoichiometry; 3 replicates. (In ITC the heat of successive injections is recorded.)

Assay [2] addresses T2, PNUTS TND (rat PNUTS 5-160, C48S) (rat, UniProt O55000 5-160, C48S).
T2 construct: PNUTS (PPP1R10), rat, N-terminal TFIIS domain, residues 5-160; cloned in pRP1b; 15N-labelled for NMR; also called PNUTS N-terminal domain; PNUTS NTD; source: E. coli BL21 (DE3), purified (HisTrap, TEV cleavage, Ni-NTA flow-through, SEC)
T2 sequence (looked up): T1 chain with N16T, S28A, L50I, S55A, I58V, N73S
The experiment in a line: NMR titration; 2D [1H,15N] HSQC of 15N-labelled PNUTS with zinc-loaded Tox4 at a 1:2 molar ratio; 20 mM MES pH 6, 150 mM NaCl, 5 mM DTT; 298 K.

Assay [3] has as its target T2, PNUTS TND (rat PNUTS 5-160, C48S). The assay can be described thus: ITC; Tox4 titrated into PNUTS at 25°C; 20 mM Tris pH 8.5, 150 mM NaCl, 0.1 mM ZnSO4, 0.5 mM TCEP; one-site model assuming 1:1.

Substitutions are numbered along the chain they refer to. Names may count otherwise.

B1: Tox4 C-terminal domain, human, residues 571-621, C601S (domain or fragment)
chain: RCVRSGCENPPIVSKDWDNEYCSNECVVKHSRDVFLAWVASRNSNTVVFVK
notes: TOX4, human, residues 571-621; Cloned in pTHMT (His6-MBP-TEV site); also called TOX4 C601S; Tox4571-621 C601S; source: E. coli BL21 (DE3) with 0.1 mM ZnSO4, purified (HisTrap, TEV cleavage, Ni-NTA and amylose resin, SEC); not shown: His6, N-terminal, cleaved; MBP, N-terminal, cleaved
With B1, the Kd in assay [1] was determined as 0.3 ± 0.2 nM.

B2: Tox4 CTD (human Tox4 571-621) (domain or fragment, UniProt O94842 571-621, looked up)
chain: B1 chain with S31C
notes: TOX4, human, C-terminal domain, residues 571-621; also called Tox4 C-terminal domain; zinc-loaded Tox4; source: E. coli BL21 (DE3) with 0.1 mM ZnSO4, purified (HisTrap, TEV cleavage, amylose resin, SEC); not shown: His6, N-terminal, cleaved; MBP, N-terminal, cleaved
Take B2: in assay [2], the binding result is “binds”.

B3: Tox4 CTD (human Tox4 571-621, C601S) (domain or fragment, UniProt O94842 571-621, looked up)
chain: B1 chain
notes: TOX4, human, C-terminal domain, residues 571-621; also called Tox4_(C601S); source: E. coli BL21 (DE3) with 0.1 mM ZnSO4, purified (HisTrap, TEV cleavage, amylose resin, SEC); not shown: His6, N-terminal, cleaved; MBP, N-terminal, cleaved
The molecule B3 yielded a Kd in assay [3] of 0.3 nM.

Broadly, the Kd is the equilibrium constant for the complex coming apart. High values mean a looser complex, low ones a tighter complex.
